For the data set, the target named is T1, GmFDL19 (Glycine max, UniProt I1N8K2 1-320).
T1 sequence: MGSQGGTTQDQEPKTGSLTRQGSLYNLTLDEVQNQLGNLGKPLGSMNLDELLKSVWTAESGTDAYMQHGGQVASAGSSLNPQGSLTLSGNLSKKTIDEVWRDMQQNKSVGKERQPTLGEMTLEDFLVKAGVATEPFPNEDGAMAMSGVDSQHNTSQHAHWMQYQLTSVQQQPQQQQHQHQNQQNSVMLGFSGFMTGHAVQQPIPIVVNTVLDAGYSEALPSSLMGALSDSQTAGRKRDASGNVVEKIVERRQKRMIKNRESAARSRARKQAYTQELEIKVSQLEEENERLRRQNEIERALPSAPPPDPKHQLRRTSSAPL
Nature of the data set: EMSA; Invitrogen EMSA kit E33075, 6% native TBE polyacrylamide gel, 200 V 45 min, SYBR Green stain; binding buffer, salt, pH and temperature not stated. Conditions: protein: recombinant; tags: His (pET29b, NdeI/SalI); chain copies: 2; label: none (SYBR Green stain); blunt. (In general: In EMSA bound probe runs differently from free probe, usually more slowly.)

B1: GmAP1aP-1280 CArG box (dsDNA)
DNA 1: GCAACCATCCATCCAAAAATAAGGCAAAAAAAATAAACAT
DNA 2: ATGTTTATTTTTTTTGCCTTATTTTTGGATGGATGGTTGC
As for B1, the binding result was “no binding”.

(Values after paper PMC4028237, “GmFT2a and GmFT5a Redundantly and Differentially Regulate Flowering through Interaction with and Upregulation of the bZIP Transcription Factor GmFDL19 in Soybean”.)
